Assay results published in article PMC7508256.

How the values were obtained:
Test in all cases: MST
DF1 (YTHDF1) = target: T1, DF1 (YTHDF1) (UniProt Q9BYJ9 1-559)
T1 sequence: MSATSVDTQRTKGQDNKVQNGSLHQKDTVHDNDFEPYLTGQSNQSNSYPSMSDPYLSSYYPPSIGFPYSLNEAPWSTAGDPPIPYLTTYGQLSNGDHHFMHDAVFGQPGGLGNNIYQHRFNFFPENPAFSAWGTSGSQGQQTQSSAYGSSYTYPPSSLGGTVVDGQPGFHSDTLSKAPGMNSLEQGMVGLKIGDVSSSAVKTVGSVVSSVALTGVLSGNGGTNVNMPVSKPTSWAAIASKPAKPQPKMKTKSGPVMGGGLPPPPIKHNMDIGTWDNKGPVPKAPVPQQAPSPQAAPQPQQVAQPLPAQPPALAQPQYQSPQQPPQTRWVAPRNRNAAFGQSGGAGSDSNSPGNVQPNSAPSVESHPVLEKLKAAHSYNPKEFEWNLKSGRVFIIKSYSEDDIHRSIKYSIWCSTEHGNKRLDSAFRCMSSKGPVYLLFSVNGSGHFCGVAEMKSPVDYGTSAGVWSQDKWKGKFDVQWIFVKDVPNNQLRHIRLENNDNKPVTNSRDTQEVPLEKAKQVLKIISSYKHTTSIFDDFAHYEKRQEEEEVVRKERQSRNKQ

DF2 (YTHDF2) = target: T2, DF2 (YTHDF2) (UniProt Q9Y5A9 1-579)
T2 sequence: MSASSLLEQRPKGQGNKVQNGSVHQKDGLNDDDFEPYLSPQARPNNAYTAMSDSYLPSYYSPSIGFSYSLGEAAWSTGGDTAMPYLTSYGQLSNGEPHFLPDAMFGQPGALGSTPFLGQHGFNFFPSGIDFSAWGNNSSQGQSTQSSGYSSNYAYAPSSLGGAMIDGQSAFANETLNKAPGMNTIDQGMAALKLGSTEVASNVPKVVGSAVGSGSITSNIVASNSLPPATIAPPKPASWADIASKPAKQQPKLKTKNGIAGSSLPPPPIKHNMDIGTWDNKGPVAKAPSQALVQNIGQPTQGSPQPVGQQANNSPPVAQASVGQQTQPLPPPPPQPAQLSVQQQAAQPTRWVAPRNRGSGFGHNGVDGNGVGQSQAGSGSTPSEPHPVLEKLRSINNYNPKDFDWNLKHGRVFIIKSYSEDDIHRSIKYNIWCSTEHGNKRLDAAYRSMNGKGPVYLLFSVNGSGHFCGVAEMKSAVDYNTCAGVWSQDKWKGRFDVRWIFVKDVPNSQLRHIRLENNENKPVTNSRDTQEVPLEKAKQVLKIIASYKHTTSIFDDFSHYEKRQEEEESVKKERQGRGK

DF3 (YTHDF3) = target: T3, DF3 (YTHDF3) (UniProt Q7Z739 1-585)
T3 sequence: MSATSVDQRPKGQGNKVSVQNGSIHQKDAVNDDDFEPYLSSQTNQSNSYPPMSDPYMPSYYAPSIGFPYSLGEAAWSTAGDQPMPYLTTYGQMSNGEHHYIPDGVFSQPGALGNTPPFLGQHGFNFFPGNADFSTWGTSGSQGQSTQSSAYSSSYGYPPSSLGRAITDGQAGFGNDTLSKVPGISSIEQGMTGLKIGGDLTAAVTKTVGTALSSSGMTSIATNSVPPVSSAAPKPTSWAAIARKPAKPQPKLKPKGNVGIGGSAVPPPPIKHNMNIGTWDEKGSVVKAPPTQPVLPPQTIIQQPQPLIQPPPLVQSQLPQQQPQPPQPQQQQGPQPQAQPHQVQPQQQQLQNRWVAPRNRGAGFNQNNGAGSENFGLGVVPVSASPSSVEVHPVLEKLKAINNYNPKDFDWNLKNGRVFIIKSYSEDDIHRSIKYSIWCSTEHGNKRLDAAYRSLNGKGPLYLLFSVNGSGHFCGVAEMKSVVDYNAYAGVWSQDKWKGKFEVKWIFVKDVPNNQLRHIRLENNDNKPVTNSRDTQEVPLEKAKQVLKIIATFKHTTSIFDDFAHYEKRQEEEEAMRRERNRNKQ

Measured: binding result

UCCGGACUGU (ssRNA, N6-methyladenosine at position 6) [m6A-modified RNA]
binds: all assays above
